From US20250257143A1

Molecular target: beta gamma receptor (CD122/CD132) for IL2 and IL15 on a reporter cell line (UniProt P14784)
Sequence (P14784 27-551 limits assumed, chain 1 of 2): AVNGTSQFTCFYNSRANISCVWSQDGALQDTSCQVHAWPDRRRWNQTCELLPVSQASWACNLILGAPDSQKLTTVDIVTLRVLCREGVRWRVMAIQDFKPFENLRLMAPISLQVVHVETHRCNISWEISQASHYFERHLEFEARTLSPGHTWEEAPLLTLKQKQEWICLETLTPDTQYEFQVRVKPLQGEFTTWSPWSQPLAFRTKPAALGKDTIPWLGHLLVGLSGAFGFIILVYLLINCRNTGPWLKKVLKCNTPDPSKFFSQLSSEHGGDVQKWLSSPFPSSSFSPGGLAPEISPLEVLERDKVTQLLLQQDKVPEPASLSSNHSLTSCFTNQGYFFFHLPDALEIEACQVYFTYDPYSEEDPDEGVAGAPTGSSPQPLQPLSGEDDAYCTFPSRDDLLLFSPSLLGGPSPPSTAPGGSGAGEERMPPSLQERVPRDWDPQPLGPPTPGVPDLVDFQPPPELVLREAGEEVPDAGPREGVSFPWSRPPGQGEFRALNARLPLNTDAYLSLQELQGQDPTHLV
Sequence (P31785 23-369 limits assumed, chain 2 of 2, further chain): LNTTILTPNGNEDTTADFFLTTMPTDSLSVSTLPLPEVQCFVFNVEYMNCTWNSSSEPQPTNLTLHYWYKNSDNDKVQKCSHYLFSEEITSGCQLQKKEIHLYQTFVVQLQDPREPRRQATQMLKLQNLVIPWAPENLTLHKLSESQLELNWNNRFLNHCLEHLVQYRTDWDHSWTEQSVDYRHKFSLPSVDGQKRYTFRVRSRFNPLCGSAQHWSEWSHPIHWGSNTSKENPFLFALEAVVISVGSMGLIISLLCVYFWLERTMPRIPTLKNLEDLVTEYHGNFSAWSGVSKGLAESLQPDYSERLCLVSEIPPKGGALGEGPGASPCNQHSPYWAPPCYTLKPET

anti-human CD122 antibody Clone TU27 (BioLegend, Catalog #339015)
IC50, inhibition of the IL2 (12.5 ng/mL)-driven luciferase signal (RLUs) in βγ-receptor reporter cells: 0.0757 µg/mL
IC50, inhibition of the IL15 (6 ng/mL)-driven luciferase signal (RLUs) in βγ-receptor reporter cells: 0.6 µg/mL
